Measurements reported in US12503518B2, “Heparanase-neutralizing A54 monoclonal antibody” (TECHNION RESEARCH & DEVELOPMENT FOUNDATION LIMITED, priority 2020, dated 2025).

Legend:
[1] = system: Luc-U87 human glioma cells; experiment: U87 glioma tumor growth in NOD/SCID mice, IVIS imaging; format: in vivo; details: s.c. tumors, 500 μg/mouse, 3 times/week; vs PBS; P=0.04
Experimental: U87 glioma. Cells from exponential cultures of Luciferase labeled U87 glioma cells were detached with trypsin/EDTA, washed with PBS and brought to a concentration of 5×10^7 cells/ml. Cell suspension (5×10^6/0.1 ml) was inoculated subcutaneously at the right flank of 5-weeks old female SCID/Beige mice (n=7). Three days after cell inoculation, mice are randomly assigned to 2 cohorts (5-10 mice each) receiving (a) vehicle (PBS); and (b) A54 mAb (500 μg/mouse, 3 times/week). Tumor development is inspected (once a week) by IVIS imaging following administration of luciferin (see below) as described (Barash et al. FASEB J 2010; 24:1239-48, Barash et al., J Natl Cancer Inst. 110:1102-1114, 2018). […]
IVIS imaging. […] Imaging is performed in real time, is non-invasive and provides quantitative data. […] Light emitted from the bioluminescent cells is detected by the IVIS camera system with images quantified for tumor burden using a log-scale color range set at 5×10^4 to 1×10^7 and measurement of total photon counts per second (PPS) using Living Image software (Xenogen).
Similarly, Luc-U87 human glioma cells (5×10^6/0.1 ml) were inoculated subcutaneously (s.c.) at the right flank of 5-weeks old female NOD/SCID mice (n=5). […] Tumor growth was evaluated by IVIS imaging (FIGS. 5D and 5E) and quantification of luciferase signals is shown graphically (FIG. 5F).

[2] = system: MPC-11 mouse myeloma cells; experiment: MPC-11 myeloma tumor growth in syngeneic Balb/c mice; format: in vivo
Experimental: MPC-11 myeloma. Mouse MPC-11 myeloma cells are detached with trypsin/EDTA, washed with PBS, brought to a concentration of 5×10^5 cells/0.2 ml and inoculated subcutaneously at the right flank of 6-8-weeks-old Balb/c mice. Three days after cell inoculation, mice are randomly assigned to 2 cohorts (6 mice each) receiving (a) vehicle (PBS); and (b) A54 mAb (500 μg/mouse, 3 times/week. Xenograft size is determined on day 7, 10 and 14 by externally measuring tumors in 2 dimensions using a caliper. At the end of the experiment, mice are sacrificed and tumor xenografts are removed and weighed.
Briefly, Balb/c mice were inoculated (s.c.) with MPC-11 mouse myeloma cells (0.5×10^6). Treatment with mAb A54 (250 or 500 μg/mouse every other day) was initiated two days after cell inoculation. Control cells were administrated with PBS. Xenograft size was determined twice a week by externally measuring the tumors in two dimensions using a caliper, and tumor volume was calculated (FIG. 6A). At the end of the experiment (Day 14) xenografts were removed, weighed (FIG. 6B), fixed in formalin and photographed (FIG. 6C). […] The above results imply that the development of primary tumors can be restrained by the anti-heparanase mAb A54.

B1: mAb A54: heparanase-neutralizing murine monoclonal antibody, IgG1-Kappa; VH SEQ ID NO: 7, VL SEQ ID NO: 8; binds HBD-II of heparanase (antibody, listed as Mus musculus, V domains shown)
VH: QVQLQQSGAELAKPGASVRMSCKASGYTFTNYWMHWVKQRPGQGLEWIGYINPTTGYTEYNQKFKDKATLTADKSSSTAYMQLSSLTSEDSAVYYCARGGAGYDYDEDYAMDYWGQGTSVTVSS
VL: DIVLTQSPASLAVSLGQRATISCRASESVEYFGTSYMNWYQQKPGQPPKLLIYLASILESGIPARFSGSGSGTDFTLNIHPVEEEDAATYYCQQSNEDPYTFGGGTKLEIK
[1]
  glioma tumor growth rate (IVIS luciferase signal): marked inhibition of the glioma tumor growth rate
[2]; 250 or 500 μg/mouse every other day from day 2, day 14, vs PBS
  attenuation of myeloma tumor growth: 4 fold
[2]; 250 vs 500 μg/mouse every other day
  dose dependence of tumor growth attenuation: higher dose of antibody was more effective
